US20240270846A1 (published 2024)
Numbering of substitutions follows the chain as printed.

B1: CE115HA000 H chain altered form H35R (antibody, human IgG1, kappa, L234A L235A, N297A, name in Kabat numbering)
heavy: QVQLVESGGGVVQPGRSLRLSCAASGFTFSNAWMRWVRQAPGKGLEWVAQIKAKSNNYATYYAESVKGRFTISRDDSKNSLYLQMNSLKTEDTAVYYCRYVHYGAYYGVDAWGQGTTVTVSSASTKGPSVFPLAPSSKSTSGGTAALGCLVKDYFPEPVTVSWNSGALTSGVHTFPAVLQSSGLYSLSSVVTVPSSSLGTQTYICNVNHKPSNTKVDKKVEPKSCDKTHTCPPCPAPEAAGGPSVFLFPPKPKDTLMISRTPEVTCVVVDVSHEDPEVKFNWYVDGVEVHNAKTKPREEQYASTYRVVSVLTVLHQDWLNGKEYKCKVSNKALPAPIEKTISKAKGQPREPQVYTLPPSRCELTKNQVSLSCAVKGFYPSDIAVEWESNGQPENNYKTTPPVLDSDGSFFLVSKLTVDKSRWQQGNVFSCSVMHEALHNHYTQKSLSLSPDYKDDDDK
chain: EPKSSDKTHTCPPCPAPELLGGPSVFLFPPKPKDTLMISRTPEVTCVVVDVSHEDPEVKFNWYVDGVEVHNAKTKPREEQYNSTYRVVSVLTVLHQDWLNGKEYKCKVSNKALPAPIEKTISKAKGQPREPQVCTLPPSRDELTKNQVSLWCLVKGFYPSDIAVEWESNGQPENNYKTTPPVLDSDGSFFLYSKLTVDKSRWQQGNVFSCSVMHEALHNRYTQKSLSLSP
light: DIVMTQSPLSLPVTPGEPASISCRSSQSLVHSNRNTYLHWYQQKPGQAPRLLIYKVSNRFSGVPDRFSGSGSGTDFTLKISRVEAEDVGVYYCGQGTQVPYTFGQGTKLEIKRTVAAPSVFIFPPSDEQLKSGTASVVCLLNNFYPREAKVQWKVDNALQSGNSQESVTEQDSKDSTYSLSSTLTLSKADYEKHKVYACEVTHQGLSSPVTKSFNRGEC
notes: one-arm antibody
B2: CE115HA000 H chain altered form H35V (antibody, human IgG1, kappa, L234A L235A, N297A, name in Kabat numbering)
heavy: B1 heavy with R35V
chain: B1 chain
light: B1 light
notes: one-arm antibody
B3: CE115HA000 H chain altered form H35S (antibody, human IgG1, kappa, L234A L235A, N297A, name in Kabat numbering)
heavy: B1 heavy with R35S
chain: B1 chain
light: B1 light
notes: one-arm antibody
B4: CE115HA000 H chain altered form I51E (antibody, human IgG1, kappa, L234A L235A, N297A, name in Kabat numbering)
heavy: B1 heavy with R35H, I51E
chain: B1 chain
light: B1 light
notes: one-arm antibody
B5: CE115HA000 H chain altered form K43Q (antibody, human IgG1, kappa, L234A L235A, N297A, name in Kabat numbering)
heavy: B1 heavy with R35H, K43Q
chain: B1 chain
light: B1 light
notes: one-arm antibody
B6: CE115HA000 H chain altered form H35T (antibody, human IgG1, kappa, L234A L235A, N297A, name in Kabat numbering)
heavy: B1 heavy with R35T
chain: B1 chain
light: B1 light
notes: one-arm antibody
B7: CE115HA000 H chain altered form I51D (antibody, human IgG1, kappa, L234A L235A, N297A, name in Kabat numbering)
heavy: B1 heavy with R35H, I51D
chain: B1 chain
light: B1 light
notes: one-arm antibody
B8: CE115HA000 H chain altered form K43E (antibody, human IgG1, kappa, L234A L235A, N297A, name in Kabat numbering)
heavy: B1 heavy with R35H, K43E
chain: B1 chain
light: B1 light
notes: one-arm antibody
B9: CE115HA000 H chain altered form H35W (antibody, human IgG1, kappa, L234A L235A, N297A, name in Kabat numbering)
heavy: B1 heavy with R35W
chain: B1 chain
light: B1 light
notes: one-arm antibody
B10: CE115HA000 H chain altered form H35Y (antibody, human IgG1, kappa, L234A L235A, N297A, name in Kabat numbering)
heavy: B1 heavy with R35Y
chain: B1 chain
light: B1 light
notes: one-arm antibody

molecular target: T1, CD3 epsilon homodimer protein (UniProt P07766 23-126); assay: SPR Biacore T200, CD3 epsilon homodimer on chip, antibody as analyte;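 also: homodimer amine-coupled to a CM4 sensor chip, run at 25 °C in HBS-EP+ buffer, with kinetic parameters derived in Biacore T200 Evaluation Software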
T1 construct: also called CD3 (CD3 epsilon)
T1 sequence (P07766 23-126): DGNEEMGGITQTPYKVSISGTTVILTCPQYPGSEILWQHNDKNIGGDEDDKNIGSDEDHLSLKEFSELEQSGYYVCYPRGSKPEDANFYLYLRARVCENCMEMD

Binder	KD ratio (KD of CE115HA000 / KD of altered form)
B1	15400
B2	28.1
B3	2.93
B4	0.84
B5	0.89
B6	4.4
B7	6.37
B8	0.88
B9	50.4
B10	119000
